Measured values taken from the supplement of paper PMC7125110.
± gives the standard error. This sample holds only a part of the variants without activity.

B1: glmS ribozyme (parent)
chain: AUAAAAGCGCCAGAACUACAGAAAUGUAGUUGACGAGGAGGAGGUUUAUCGAAUUUUCGGCGGAUGCCUCCAAA

Key:
Conditions in all cases: with glucosamine-6-phosphate
glucosamine-6-phosphate [1] = variants of: B1; test: self-cleavage kobs at 640 uM GlcN6P; higher = faster cleavage; RNA array
Outline: (§1)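 E. coli RNA polymerase transcribed barcoded ribozyme variants in situ on sequenced MiSeq chips, which were tracked via a hybridised Cy3 probe at 37 °C. Tiles were imaged over ~14 h after glucosamine-6-phosphate (40 μM to 10 mM) in HEPES/KCl/Mg(OAc)2 buffer was flowed in. Normalised per-tile medians were fit to one- or two-exponential decays for kobs, and kcat and KM came from weighted Michaelis–Menten fits.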

glucosamine-6-phosphate [2] = variants of: B1; test: self-cleavage kobs at 2500 uM GlcN6P; higher = faster cleavage; RNA array
Outline: as §1

glucosamine-6-phosphate [3] = variants of: B1; test: self-cleavage kobs at 10000 uM GlcN6P; higher = faster cleavage; RNA array
Outline: as §1

| Variant | self-cleavage kobs at 640 uM GlcN6P (glucosamine-6-phosphate [1]) [s⁻¹] | self-cleavage kobs at 2500 uM GlcN6P (glucosamine-6-phosphate [2]) [s⁻¹] | self-cleavage kobs at 10000 uM GlcN6P (glucosamine-6-phosphate [3]) [s⁻¹] |
| --- | --- | --- | --- |
| G35U G59U G60C G62U | < 1e-05 |  |  |
| G38U C50G A64G | 6.44e-05 ± 2.9e-05 | 3.85e-05 ± 1.7e-05 |  |
| G35C G40U A52U G63U | < 1e-05 | < 1e-05 |  |
| A42G U45C G59C G62U C68U | < 1e-05 |  |  |
| A33C G35C U56C C67U | < 1e-05 |  |  |
| G40C G43U U55C | < 1e-05 | < 1e-05 |  |
| G41U G43U U45C A53U C71U | < 1e-05 | < 1e-05 |  |
| A39U G41U U56G | 6.4e-05 ± 1.9e-05 | 0.000106 ± 2.3e-05 |  |
| C34A U46C A53G G60C C61A | < 1e-05 | < 1e-05 |  |
| A42U U47A U54C | 3.85e-05 ± 9.6e-06 |  |  |
| A36C G40U U54A G63U | < 1e-05 | < 1e-05 | < 1e-05 |
| G32U U55G C71U | 0.00014 ± 3.5e-05 |  | 0.000518 ± 0.00011 |
| A42C C67U C71G | < 1e-05 |  |  |
| A42C C61U C68G C71U | < 1e-05 |  |  |
| A39C U56C | 0.00018 ± 3.3e-05 | 0.000456 ± 0.00015 | 0.00101 ± 0.00021 |
| G40C C50U G60C | < 1e-05 |  | < 1e-05 |
| C34A G44C C58U | < 1e-05 | < 1e-05 |  |
| A36G G43U | < 1e-05 |  | < 1e-05 |
| A36G G38U C50A G62A | < 1e-05 |  |  |
| G37C G40C U49A | < 1e-05 | < 1e-05 |  |
| G35A G40U C68U | < 1e-05 |  |  |
| G38U A64U C70G | 8.06e-05 ± 3.4e-05 |  |  |
| C34U G43U A53G U55A A64U | < 1e-05 | < 1e-05 |  |

| Variant | self-cleavage kobs at 640 uM GlcN6P (glucosamine-6-phosphate [1]) [s⁻¹] | self-cleavage kobs at 2500 uM GlcN6P (glucosamine-6-phosphate [2]) [s⁻¹] | self-cleavage kobs at 10000 uM GlcN6P (glucosamine-6-phosphate [3]) [s⁻¹] |
| --- | --- | --- | --- |
| A39U G43C G44A G51U | < 1e-05 | < 1e-05 |  |
| G35A G38U A42C U55C | < 1e-05 |  |  |
| G38A G41C U54G C61A | < 1e-05 | < 1e-05 |  |
| G41C C50G G51C | < 1e-05 |  |  |
| A42U U69C | 0.0106 ± 0.0031 | 0.00357 ± 0.0013 |  |
| A39U C67A C68U | 3.93e-05 ± 1.2e-05 | 0.000112 ± 3e-05 |  |
| A39U U49C C68G | < 1e-05 | < 1e-05 | < 1e-05 |
| G38A G40C A42C A72U | < 1e-05 |  |  |
| G41A A48C A52U | < 1e-05 |  |  |
| G38C U56G C58U | < 1e-05 |  |  |
| G32U G59A A64U C67U | < 1e-05 | < 1e-05 |  |
| G41A G51U C68U C70G | < 1e-05 | < 1e-05 |  |
| G41A U65G | < 1e-05 |  |  |
| G43A U55G C61U G62C | < 1e-05 |  |  |
| G38C G43U A64C | < 1e-05 | < 1e-05 |  |
| A36U C50G G66U | 0.00107 ± 0.0003 |  |  |
| G32U U55A C71A | 9.04e-05 ± 2.8e-05 | 8.28e-05 ± 3.5e-05 |  |
| G43A A48G A53U G62C | < 1e-05 |  |  |
| C34U A64U G66C | < 1e-05 |  |  |
| A39G U46C U47G U65A | 0.0001 ± 3.8e-05 |  |  |
| G40U C50A G51A | < 1e-05 |  |  |
| G43U A52C G66C C68G | < 1e-05 | < 1e-05 |  |
| A36C G41U A64C | < 1e-05 | < 1e-05 |  |

| Variant | self-cleavage kobs at 640 uM GlcN6P (glucosamine-6-phosphate [1]) [s⁻¹] | self-cleavage kobs at 2500 uM GlcN6P (glucosamine-6-phosphate [2]) [s⁻¹] | self-cleavage kobs at 10000 uM GlcN6P (glucosamine-6-phosphate [3]) [s⁻¹] |
| --- | --- | --- | --- |
| G35U G40U G63U C71G | < 1e-05 |  |  |
| C34G C61G G62C | < 1e-05 |  |  |
| A36C G37C U46A A48G C70G | < 1e-05 |  |  |
| A42U U69C C70A | 0.0004 ± 0.00011 | 0.000308 ± 9.7e-05 |  |
| C34U C68U C70U | < 1e-05 |  |  |
| A33U U57A C58U C70A C71G | 9.76e-05 ± 2.5e-05 |  |  |
| C34G U57A | < 1e-05 |  | < 1e-05 |
| A36U G43A | < 1e-05 | < 1e-05 | < 1e-05 |
| A39C G43A G66A | < 1e-05 |  |  |
| G37A U54C C70U | 0.000626 ± 0.00016 | 0.00117 ± 0.00025 |  |
| C34G G37A U45A C58A | < 1e-05 |  |  |
| C34G U45A U57C | < 1e-05 |  |  |
| G41C U46A G60C | < 1e-05 | < 1e-05 |  |
| A39U U46G C50U U54C | < 1e-05 |  |  |
| A36U G41U U55A | < 1e-05 | < 1e-05 |  |
| G40U C50U G63A C67A | < 1e-05 | < 1e-05 |  |
| A33C G59A C67U | < 1e-05 |  |  |
| A33C G35C U49G G59C | < 1e-05 | < 1e-05 |  |
| G37A G40U G43C | < 1e-05 |  |  |
| G41C U45G C71U | 4.68e-05 ± 1.6e-05 | 0.000157 ± 3.9e-05 |  |
| G38C G41U C67U | < 1e-05 |  |  |
| G43A A64U C67A | < 1e-05 |  |  |
| G35C A36U G38A | < 1e-05 |  |  |
